Test results from patent US12012446B2, “Epstein-Barr virus antibodies and uses thereof” (priority 2017, dated 2024).

Key:
[1] = target: T1, purified EBV gp350/220 (recombinant EBV gp350 ectodomain) (Epstein-Barr virus, UniProt P03200); test: Indirect ELISA on recombinant EBV gp350 ectodomain; assay type: binding
T1 construct: purified EBV gp350 ectodomain protein (AA 4-863); purchased Immune Technology Corporation
Method in brief: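 Plates coated overnight at 4 °C with recombinant gp350 ectodomain at 0.5 μg/ml, blocked with 2% BSA. Hybridoma supernatant or purified mAb (10 μg/ml) bound 2 h at room temperature, in triplicate. Detection by HRP anti-mouse IgG (1:2,000) with ABTS, SDS stop, A405.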

[2] = tested on: EBV-eGFP infection of Raji cells; test: EBV neutralization assay in Raji cells; assay type: cell-based, Epstein-Barr virus; details: for blocking of EBV infection of Raji cells (nAb activity) / blocking of EBV infection of Raji cells (in words): protein G and size-exclusion chromatography-purified mAbs; for blocking of EBV infection of Raji cells (nAb activity): lowest concentration 12.5 μg/ml; for neutralization of EBV in Raji cells (in words): spin-column purified mAbs, 12.5, 25, 50 and 100 μg/ml; for neutralization of EBV in Raji cells: spin-column purified mAbs; for neutralization of EBV in Raji cells / blocking of EBV infection of Raji cells (in words): 12.5-100 μg/ml; for EBV neutralization, summary statement: as stated in Example 8
Method in brief: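 Purified anti-gp350 mAbs were preincubated 2 h at 37° C with purified AGS-EBV-eGFP, then used to infect 5×10^5 Raji cells for 2 h. After washing, cells were cultured 48 h and eGFP+ cells counted by flow cytometry. % neutralization = (EBV alone − EBV+mAb)/EBV alone × 100; mAbs at 12.5, 25, 50 and 100 μg/ml.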

goat anti-mouse IgG = test: ELISA for reactivity to anti-mouse IgG (HAMA testing); assay type: binding; details: 10 μg/ml antibody on gp350-coated plates
Excerpt: ClustalW alignment of heavy chain (i) and light chain (ii) variable region amino acid sequences. Murine 72A1 heavy chain and light chain AA sequences are represented by SEQ ID NOs: 178 and 179, respectively, and humanized 72A1 heavy chain and light chain AA sequences are represented by SEQ ID NOs: 180 and 181, respectively. Regions of identical sequence are represented by *. Regions of similarity are represented by :. […] FIG. 4C: ELISA determining the reactivity of humanized 72A1 to murine IgG. Soluble EBV gp350 protein was used as the target antigen at 0.5 μg/ml. […] Bound antibodies were detected using HRP-conjugated anti-mouse IgG or anti-human IgG (1:2,000). […] Unstained cells and cells stained with secondary goat anti-mouse or anti-human conjugated to AF488 alone were used as negative controls.
ELISA was performed to determine the reactivity of chimeric and humanized antibodies to murine IgG. Soluble EBV gp350 or gH/gL protein was used as the target antigen at 0.5 μg/ml. […] Bound antibodies were detected using HRP-conjugated anti-mouse IgG or anti-human IgG (1:2,000). […] To determine whether chimeric and humanized anti-gp350 retained the ability to recognize linear epitopes on gp350, lysate from CHO WT cells and CHO cell stably expressing gp350 were analyzed by western blot analysis.

T1 sequence (P03200 4-863): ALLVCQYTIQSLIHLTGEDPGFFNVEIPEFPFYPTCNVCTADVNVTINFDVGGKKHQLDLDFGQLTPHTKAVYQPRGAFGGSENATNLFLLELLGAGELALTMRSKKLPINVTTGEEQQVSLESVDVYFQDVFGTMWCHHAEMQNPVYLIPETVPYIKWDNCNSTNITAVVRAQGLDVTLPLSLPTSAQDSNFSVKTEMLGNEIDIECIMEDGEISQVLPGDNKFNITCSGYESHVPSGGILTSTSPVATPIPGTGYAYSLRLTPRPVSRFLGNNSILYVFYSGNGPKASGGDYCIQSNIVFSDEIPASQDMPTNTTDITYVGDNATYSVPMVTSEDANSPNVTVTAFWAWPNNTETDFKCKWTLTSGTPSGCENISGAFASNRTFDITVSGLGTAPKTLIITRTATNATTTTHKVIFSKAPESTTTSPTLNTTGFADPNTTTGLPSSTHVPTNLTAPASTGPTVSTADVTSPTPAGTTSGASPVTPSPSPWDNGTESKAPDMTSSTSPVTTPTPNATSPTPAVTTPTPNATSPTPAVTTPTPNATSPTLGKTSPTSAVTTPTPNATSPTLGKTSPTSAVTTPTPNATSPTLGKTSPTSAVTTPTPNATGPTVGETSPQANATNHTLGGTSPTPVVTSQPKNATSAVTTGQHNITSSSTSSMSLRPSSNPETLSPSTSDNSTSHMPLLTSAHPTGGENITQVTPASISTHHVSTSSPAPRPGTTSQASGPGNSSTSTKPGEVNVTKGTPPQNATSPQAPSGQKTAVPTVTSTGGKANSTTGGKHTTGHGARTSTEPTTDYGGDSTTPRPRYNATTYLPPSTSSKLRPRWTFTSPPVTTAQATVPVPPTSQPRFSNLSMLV

| Molecule | ELISA binding to purified EBV gp350/220 ([1]; purified antibodies 10 μg/ml) | ELISA signal relative to negative control 54A1 ([1]; purified antibodies 10 μg/ml) | blocking of EBV infection of Raji cells (nAb activity) [2] | neutralization of EBV in Raji cells (in words) [2] | neutralization of EBV in Raji cells [2] | reactivity to goat anti-mouse IgG above the background (1×PBS) (goat anti-mouse IgG) | reactivity to goat-anti-mouse IgG as compared to goat anti-human IgG (goat anti-mouse IgG) | ELISA binding strength to gp350, compared with m72A1 / parental antibody ([1]; soluble gp350 0.5 μg/ml) | EBV neutralization, summary statement [2] | blocking of EBV infection of Raji cells (in words) [2] |
| --- | --- | --- | --- | --- | --- | --- | --- | --- | --- | --- |
| m72A1: EBV anti-gp350 neutralizing mouse antibody purified from HB168 hybridoma (ATCC); SEQ ID NO: 100 / 101 (antibody, V domains shown, heavy chain mAb 72A1; light chain mAb 72A1) VH: PELVKPGTSMKISCKASGSSFTDYTMNWMKQSHGKNLEWIGLINPYNGGTRYNQKFKGKATLTLDKSSSTAYMEVLSLTSEDSAVYYCAGGLRRVNWFAYWGQGTLVSVSAAKTTPPSVYPLAPGSAAQTNSMVTLG VL: QAVLTQESALTTSPGETVTLTCRSSTGAVTTSNYANWVQEKPDHLFTGLIGGTNNRVPGVPARFSGSLIGDKAALTITGAQTEDEAIYFCVLWHSNHWVFGGGTKLTVL | + | greater than two times those of anti-KSHV gH/gL mAb 54A1 | 93% | dose-dependent neutralization | 35-80% | 28 fold | 9 fold |  |  |  |
| HB5: murine anti-EBV gp350 mAb, IgG2a κ; SEQ ID NO: 108 / 109; neutralizing (antibody, V domains shown, heavy chain mAb HB5; light chain mAb HB5, murine anti-EBV gp350 mAb, IgG2a κ; neutralizing) VH: AELVRPGASVKISCKAFGYTFTNHNINWVKQRPGQGLDWIGYINPYNDYTSYNQKFKGKATLTVDKSSNTAYMELSSLTSEDSAVYYCARSEGWLRRGAWFAYWGQGTLVTVSAAKTTAPSVYPLAPVCGDTTGSSVTLG VL: AILSVSPGERVSFSCRASQSIGTSIHWYQQRTNDSPRLLIKYASESISGIPPRFSGSGSGTDFTLSINSVESEDIADYHCQQSNSWPMLTFGAGTKLELKRADAAPTV | + |  | 90% | dose-dependent neutralization | 60-80% |  |  | equal to or greater than that of the positive control, m72A1 | non-neutralizing | blocked EBV infection in a dose-dependent manner |
| HB11: murine anti-EBV gp350 mAb, IgG1 κ; SEQ ID NO: 120 / 121; neutralizing (antibody, V domains shown, heavy chain mAb HB11; light chain mAb HB11, murine anti-EBV gp350 mAb, IgG1 κ; neutralizing) VH: PSLVKPSQTLSLTCSVTGDSITSGFWNWIRKFPGNKLEYMGYISYSGSTYYNPSLKSRISITRDTSKNQYYLQLNSVTTEDTATYYCARGNGGNYDWYFDVWGAGTTVTVSSAKTTPPSVYPLAPGSAAQTNSMVTLG VL: AIMSASLGEKVTMSCRASSSVNFMNWYQQKSDDSPKLLIYYISNLAPGVPARFSGSGSGNSYSLTISGMEGEDAATYYCQQFTSSPSWTFGGGTKLEIKRADAAPTV | + |  |  | dose-dependent neutralization |  |  |  |  |  | blocked EBV infection in a dose-dependent manner |
| h72A1: humanized 72A1 IgG1; heavy and light chain SEQ ID NOs: 180 and 181 (antibody, V domains shown) VH: EVQLVESGGGLVQPGGSLRLSCAASGSSFTDYTMNWMRQSPGKGLEWIGLINPYNGGTRYADSVKGRATLSLDKSKNTAYLQMNSLRAEDTAIYYCAGGLRRVNWFAYWGQGTLVTVSS VL: DAQLTQSPILLSASVGDRVTITCRSSTGAVTTSNYANWVQERTNGSFRGLIGGTNNRVPGVPSRFSGSLSGDDATLTISSLQPEDEADYFCVLWHSNHWVFGAGTKVEIKR |  |  | 98% |  |  | did not react at all |  |  |  |  |
| HB20: murine anti-EBV gp350 mAb, IgG2a κ; SEQ ID NO: 128 / 129; neutralizing (antibody, V domains shown, heavy chain mAb HB20; light chain mAb HB20, murine anti-EBV gp350 mAb, IgG2a κ; neutralizing) VH: ELVKPGASVKLSCKASGYTFTSYWIQWVKQRPGQGLEWIGEINPTNGHTNYNEKFKTKATLTVDKSSSTAYMRLSSLTSEDSAVYYCARNLYYYGRPDYWGQGTSVTVSSAKTTAPSVYPLAPVCGDTTGSSVTLG VL: SSLSASLGDRVTISCRASQDIGNYLNWYQQKPDGTVKLLIYYTSRLHSGVPSRFSGSGSGTDYSLTISNLEQEDIATYFCQQGNALPPTFGGGTKLEIKRADAAPTV | + |  |  | failed to neutralize EBV infection |  |  |  |  | one of the best nAb | blocked EBV infection in a dose-dependent manner |
